Source: patent US20100316636A1

Key:
[1] = target: human IL-6 receptor on hIL-6-responsive cells (XG-1 myeloma line, HepG2 hepatoma line) (human) (UniProt P08887); assay: cell-based or functional assay
[2] = target: hIL-6R-hFc (human) (UniProt P08887); assay: blocking immunoassay: 100 pM hIL-6R-hFc premixed with titrated antibody, free hIL-6R-hFc captured on coated hIL-6
[3] = target: recombinant human IL-6R protein, monomeric form (human) (UniProt P08887); assay: Kinexa solution-phase competition immunoassay, monomer
recombinant human IL-6R protein, monomeric form (human), sequence (P08887 20-358 limits assumed): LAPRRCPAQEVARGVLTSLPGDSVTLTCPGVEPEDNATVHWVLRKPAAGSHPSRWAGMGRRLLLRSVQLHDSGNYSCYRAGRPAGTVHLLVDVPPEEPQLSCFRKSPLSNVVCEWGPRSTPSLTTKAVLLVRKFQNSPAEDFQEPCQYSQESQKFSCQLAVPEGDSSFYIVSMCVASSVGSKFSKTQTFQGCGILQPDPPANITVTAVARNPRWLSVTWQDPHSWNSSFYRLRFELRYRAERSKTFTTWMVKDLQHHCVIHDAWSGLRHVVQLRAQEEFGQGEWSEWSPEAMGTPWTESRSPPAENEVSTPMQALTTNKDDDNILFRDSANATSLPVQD

[4] = target: recombinant human IL-6R protein, monomeric form (human) (UniProt P08887); assay: SPR (BIAcore), captured antibody, monomeric hIL-6R injected
[5] = target: recombinant human IL-6R protein, monomeric form (human) (UniProt P08887); assay: SPR (BIAcore), antibody captured on anti-mouse Fc, monomeric IL-6R 1.25-40 nM injected
[6] = target: recombinant monkey monomeric IL-6R protein (Macaca fascicularis, extracellular domain) (Macaca fascicularis); assay: as above
recombinant monkey monomeric IL-6R protein (Macaca fascicularis, extracellular domain) (Macaca fascicularis), sequence (P08887 other isoform, or with tags, fused parts or gaps): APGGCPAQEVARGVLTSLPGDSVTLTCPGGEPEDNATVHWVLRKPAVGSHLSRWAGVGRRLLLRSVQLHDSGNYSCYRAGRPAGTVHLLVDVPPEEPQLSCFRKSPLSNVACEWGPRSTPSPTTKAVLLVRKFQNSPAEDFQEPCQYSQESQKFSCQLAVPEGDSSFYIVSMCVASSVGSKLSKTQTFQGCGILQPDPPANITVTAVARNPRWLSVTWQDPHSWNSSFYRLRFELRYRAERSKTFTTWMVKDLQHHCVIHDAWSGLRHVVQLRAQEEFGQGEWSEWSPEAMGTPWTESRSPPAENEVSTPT

human IL-6 receptor on hIL-6-responsive cells (XG-1 myeloma line, HepG2 hepatoma line) (human), sequence (P08887 20-468): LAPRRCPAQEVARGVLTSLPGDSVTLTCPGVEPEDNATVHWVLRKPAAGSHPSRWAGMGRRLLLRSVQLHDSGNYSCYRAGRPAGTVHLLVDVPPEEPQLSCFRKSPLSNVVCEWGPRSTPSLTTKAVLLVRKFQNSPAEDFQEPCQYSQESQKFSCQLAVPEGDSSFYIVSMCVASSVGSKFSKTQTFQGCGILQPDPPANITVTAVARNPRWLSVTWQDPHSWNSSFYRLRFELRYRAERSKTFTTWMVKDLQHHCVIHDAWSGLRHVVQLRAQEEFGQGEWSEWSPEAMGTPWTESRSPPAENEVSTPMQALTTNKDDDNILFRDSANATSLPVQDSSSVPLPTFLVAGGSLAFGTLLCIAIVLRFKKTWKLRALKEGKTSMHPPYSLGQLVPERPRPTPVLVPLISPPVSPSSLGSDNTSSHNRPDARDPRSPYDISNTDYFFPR
hIL-6R-hFc (human), sequence (P08887 20-358): as the sequence (P08887 20-358 limits assumed) above

HepG2/Stat3 Luciferase activity IC50 [1]: 0.854 nM | XG-1 cell proliferation Inhibition IC50 [1]: 1.5 nM | IC50 [2]: 2.2 nM | Kd [3]: 1.96 nM | Kd [4]: 1.79 nM | Kd [5]: 0.963 nM | Kd [6]: 1.17 nM
Substance: control: humanized monoclonal antibody to human IL-6R (U.S. Pat. No. 5,817,790 SEQ ID NO:69 and 71)
